To fix the notation:
B1: 368_B03 (antibody, V domains shown)
VH: EVQLLESGGGLVQPGGSLRLSCAASGFTFDDYGMNWVRQAPGKGLEWVSGINYNGGYTSYADSVKGRFTISRDNSKNTLYLQMNSLRAEDTAVYYCARAANWHDTALDYWGQGTLVTVSS
VL: DIQMTQSPSSLSASVGDRVTITCRASQSILTYLNWYQQKPGKAPKLVIYAATSLASGVPSRFSGSGSGTDFTLTISSLQPEDFATYYCQHSYENPLTFGGGTKVEIK
notes: Group I
B2: 368_C07 (antibody, V domains shown)
VH: B1 VH with D30S, D31S, N35H, S49A, G55S, N101T, A106H
VL: B1 VL with L30V, T31S, L33V, L54R, H90Q
notes: Group II
B3: 368_C04 (antibody, V domains shown)
VH: B1 VH with D31S, N35H, G50N, N101T, A106H
VL: B1 VL with T31S, L33V, V47L, L54R, H90Q, E93S, N94T
notes: Group II
B4: 368_B10 (antibody, V domains shown)
VH: B1 VH with D31S, N35H, S49A, G50S
VL: B1 VL with L54R, H90Q, Y92D, N94L
notes: Group I
B5: 368_B08 (antibody, V domains shown)
VH: B1 VH with D31S, G50S, A106H
VL: B1 VL with L33V, L54R, H90Q
notes: Group I
B6: 368_C09 (antibody, V domains shown)
VH: B1 VH with D30S, D31S, G33S, N35H, G50N, S59G, A106H
VL: B1 VL with L33V, V47L, H90Q, E93D, N94L
notes: Group I
B7: 368_B11 (antibody, V domains shown)
VH: B1 VH with D31S, N35H, T58K, A106H
VL: B1 VL with T31S, V47L, T52S, A55Q, H90Q, E93D, N94S
notes: Group I
B8: 368_C12 (antibody, V domains shown)
VH: B1 VH with D31S, N35H, S49A, G50S, N101T, A106H
VL: B1 VL with V47L, L54R, H90Q, Y92D, E93S
notes: Group II
B9: 368_B12 (antibody, V domains shown)
VH: B1 VH with D31S, N35H, G55S, N101T, A106H
VL: B1 VL with L30V, T31S, L33V, V47L, L54R, H90Q, E93D, N94L
notes: Group II
B10: 368_D03 (antibody, V domains shown)
VH: B1 VH with D30S, G33S, N35H, S49A, G50S, N101T, A106H
VL: B1 VL with L30I, L33V, V47L, A51T, L54R, H90Q, E93D, N94L
notes: Group II
B11: 368_B04 (antibody, V domains shown)
VH: B1 VH with D31S, N35H, G50S, N101T, A106H
VL: B1 VL with L30V, T31S, L54R, H90Q
notes: Group II
B12: 368_D06 (antibody, V domains shown)
VH: B1 VH with D30S, D31S, G50N, S59G, N101T, A106H
VL: B1 VL with T31S, L33V, L54R, A55H, H90Q
notes: Group II

This is an account of results in patent publication US20210380703A1 (RIGEL PHARMACEUTICALS, published 2021).

Substitutions are numbered along the chain they refer to.
Also: test concentration or dose not given here.

T1 sequence (P27037 20-135 limits assumed): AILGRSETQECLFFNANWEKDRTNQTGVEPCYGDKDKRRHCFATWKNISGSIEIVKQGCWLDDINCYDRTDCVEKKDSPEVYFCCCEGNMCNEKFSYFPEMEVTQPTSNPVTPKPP
Sequence of mouse ACVR2A (P27038 20-135 limits assumed): as the sequence (P27037 20-135 limits assumed) above, with K20R, V73I counted along it

The first experiment concerns the target T1, human ACVR2A (human, UniProt P27037 20-135, limits assumed).
T1 construct: also called activin receptor, type II A
The experiment in a line: ELISA. In a few lines:
(§1)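 ELISA measured binding of ACVR2A-specific monoclonal antibodies to human and mouse ACVR2A. Biotinylated goat anti-human kappa light chain served as positive control and human Fc as negative control.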
In general terms: An ELISA detects its analyte on a solid surface through an enzyme-linked reagent.
For B1, the optical density came out at 2.04 OD.
On the same count and under the same terms, in the case of B2 it was 2.58 OD; in that of B3, 2.48 OD; in that of B4, 2.35 OD.
The molecule B5 yielded an optical density of 1.98 OD.
Still for that read-out and setting: in the case of B6 it was 2.48 OD; in that of B7, 2.14 OD.
B8 came in with an optical density of 2.49 OD.
The same measure, in the same setting: in the case of B9 it was 2.51 OD; in that of B10, 2.39 OD; in that of B11, 2.27 OD.
For B12, the optical density was 2.03 OD.

The next experiment deals with mouse ACVR2A (mouse, UniProt P27038 20-135, limits assumed). The experiment in a line: ELISA. In a few lines:
as §1
The molecule B1 registered an optical density of 2.04 OD.
Regarding B2, the optical density was 2.37 OD.
For B3, the optical density is 2.47 OD.
Molecule B4 registered an optical density of 2.42 OD.
The molecule B5 yielded an optical density of 2.18 OD.
On to B6, for which the optical density was 2.61 OD.
In turn, B7 displayed an optical density of 2.35 OD.
On the same count and under the same terms, in the case of B8 it was 2.45 OD; in that of B9, 2.47 OD.
In turn, B10 had an optical density of 2.55 OD.
On to B11, for which the optical density was 2.73 OD.
In turn, B12 had an optical density of 2.11 OD.

The next experiment has as its target T2, biotinylated goat anti-human kappa light chain.
T2 construct: positive control of the ELISA
Description: ELISA, positive control. In a few lines: as §1
With B1, the optical density was 3.38 OD.
The molecule B2 gave an optical density of 3.31 OD.
B3: the optical density turned out to be 3.67 OD.
For B4, the optical density amounted to 3.02 OD.
For B5, the optical density turned out to be 3.21 OD.
Take B6: the optical density was 3.46 OD.
On the same count and under the same terms, in the case of B7 it was 3.61 OD; in that of B8, 3.62 OD.
Consider B9, for which the optical density is 3.49 OD.
The same measure, in the same setting: in the case of B10 it was 3.49 OD; in that of B11, 3.29 OD.
Still for that read-out and setting: in the case of B12 it was 3.41 OD.
